Laboratory results published in article PMC7324543, “Rapid and sensitive large-scale screening of low affinity extracellular receptor protein interactions by using reaction induced inhibition of Gaussia luciferase” (Scientific Reports, 2020).
Blank lines part the entries; values can stand above or below the molecule they belong to.

Tests used:
[1] = target: Cd200R (Rattus norvegicus) (UniProt Q9ES58); conditions: cited from earlier work
[2] = target: T1, biotinylated rat Cd200R monomeric bait (rat, UniProt Q9ES58 24-239, biotin on a specific lysine of the C-terminal BirA acceptor peptide (enzymatic monobiotinylation)); experiment: ELISA; printed as log IC50 = -9.6; direct binding of pentameric prey to immobilised bait
T1 chain: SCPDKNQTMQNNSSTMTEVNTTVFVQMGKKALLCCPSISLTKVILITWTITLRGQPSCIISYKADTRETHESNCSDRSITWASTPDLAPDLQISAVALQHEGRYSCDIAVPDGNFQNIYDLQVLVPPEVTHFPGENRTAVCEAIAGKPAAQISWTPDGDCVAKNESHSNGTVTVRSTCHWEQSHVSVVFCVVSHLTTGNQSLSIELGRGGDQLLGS

[3] = target: T2, biotinylated Cd200R Gaussia luciferase pentamer (bait) (rat, UniProt Q9ES58 24-239, biotin on a specific lysine of the C-terminal BirA acceptor peptide (enzymatic biotinylation)); experiment: ELISA; AVEXIS: dilution series of biotinylated Gaussia luciferase pentamer immobilised as bait on a streptavidin-coated plate, probed with beta-lactamase-tagged pentameric prey; nitrocefin read-out; conditions: both partners purified
T2 construct: Cd200R (CD200 receptor 1), rat, ectodomain; also called Cd200R Gaussia luciferase-tagged pentamer; source: HEK293E, transient transfection with BirA plasmid, secreted; purified; not shown: rat Cd4 domains 3+4, C-terminal, kept; five concatenated Gaussia luciferase units (AAG54095 residues K18-D185), C-terminal, kept; BirA biotin acceptor peptide, C-terminal, kept
T2 sequence (looked up): T1 chain

[4] = target: T3, biotinylated rat Cd200R monomeric bait (rat, UniProt Q9ES58 24-239, biotin on a specific lysine of the C-terminal BirA acceptor peptide (enzymatic monobiotinylation)); experiment: ELISA; AVEXIS: dilution series of pentameric beta-lactamase prey on a fixed quantity of monomeric mono-biotinylated bait on a streptavidin-coated 96-well plate; 1 h at room temperature, washes in PBS / 0.1% Tween-20; nitrocefin, absorbance at 485 nm; conditions: both partners purified
T3 construct: Cd200R (CD200 receptor 1), rat, ectodomain; Captured on streptavidin-coated plates by its biotin; also called Cd200R bait; source: HEK293E, transient transfection with BirA plasmid, secreted; purified; not shown: rat Cd4 domains 3+4, C-terminal, kept; BirA biotin acceptor peptide, C-terminal, kept
T3 sequence (looked up): T1 chain

[5] = target: T1, biotinylated rat Cd200R monomeric bait; experiment: ELISA; printed as log IC50 = -9.9; direct binding of pentameric prey to immobilised bait
[6] = target: T3, biotinylated rat Cd200R monomeric bait; experiment: ELISA; AVEXIS: dilution series of pentameric nano-luciferase prey on a fixed quantity of monomeric mono-biotinylated bait on a streptavidin-coated 96-well plate; 1 h at room temperature; furimazine, luminescence; conditions: both partners purified
[7] = target: T3, biotinylated rat Cd200R monomeric bait; experiment: ELISA; AVEXIS: dilution series of pentameric Gaussia luciferase prey on a fixed quantity of monomeric mono-biotinylated bait on a streptavidin-coated 96-well plate; 1 h at room temperature; coelenterazine, luminescence; conditions: both partners purified
[8] = target: T2, biotinylated Cd200R Gaussia luciferase …; experiment: ELISA; AVEXIS, single construct: dilution series of biotinylated Gaussia luciferase pentamer bait on a streptavidin-coated plate, inactivated with coelenterazine, probed with non-biotinylated Gaussia luciferase pentamer prey; coelenterazine, luminescence; conditions: both partners purified

Molecule: Cd200 (from UniProt P04218)
Kd [1]: 2500 nM

IC50 [2]: 0.25 nM
binding result [3]: binds
binding result [4]: binds
B1: rat Cd200 beta-lactamase pentameric prey (domain or fragment, UniProt P04218 31-232, looked up)
chain: QVEVVTQDERKLLHTTASLRCSLKTTQEPLIVTWQKKKAVGPENMVTYSKAHGVVIQPTYKDRINITELGLLNTSITFWNTTLDDEGCYMCLFNMFGSGKVSGTACLTLYVQPIVHLHYNYFEDHLNITCSATARPAPAISWKGTGSGIENSTESHSHSNGTTSVTSILRVKDPKTQVGKEVICQVLYLGNVIDYKQSLDKG
notes: Cd200 (OX-2 membrane glycoprotein), rat, extracellular region (ectodomain); Original AVEXIS prey format; Pentamer through COMP; also called Cd200 beta-lactamase tagged prey; beta-lactamase-tagged Cd200 pentamer; source: HEK293E, transient transfection, secreted; not shown: rat Cd4 domains 3+4, C-terminal, kept; beta-lactamase (WP_125075679 residues H19-W282), C-terminal, kept

IC50 [5]: 0.126 nM
binding result [6]: binds
B2: rat Cd200 nano-luciferase pentameric prey (domain or fragment, UniProt P04218 31-232, looked up)
chain: B1 chain
notes: Cd200 (OX-2 membrane glycoprotein), rat, extracellular region (ectodomain); also called NanoLuc prey; Nano luciferase prey; source: HEK293E, transient transfection, secreted; not shown: rat Cd4 domains 3+4, C-terminal, kept; five concatenated nano-luciferase units (AHH41346 residues V2-T171), C-terminal, kept

IC50 [5]: 0.126 nM
binding result [7]: binds
binding result [8]: binds
B3: rat Cd200 Gaussia luciferase pentameric prey (domain or fragment, UniProt P04218 31-232, looked up)
chain: B1 chain
notes: Cd200 (OX-2 membrane glycoprotein), rat, extracellular region (ectodomain); also called Cd200 Gaussia luciferase fusion pentamer; GLuc prey; source: HEK293E, transient transfection, secreted; not shown: rat Cd4 domains 3+4, C-terminal, kept; five concatenated Gaussia luciferase units (AAG54095 residues K18-D185), C-terminal, kept
